This is an account of results in patent US20170073406A1.

The target of assay [1] is biotinylated His-tagged TGF-β1 LAP C4S (Homo sapiens (Human)) (UniProt P01137). In words: ELISA, neutravidin plate with biotinylated His-tagged TGF-β1 LAP C4S; antibody dilution 1:1,000; fluorescent secondary detection. A general note: ELISA stands for enzyme-linked immunosorbent assay.
Assay [2] has the same target. In words: ELISA, neutravidin plate with biotinylated His-tagged TGF-β1 LAP C4S; antibody dilution 1:5,000; fluorescent secondary detection.
For assay [3] the target is unchanged. In words: ELISA, neutravidin plate with biotinylated His-tagged TGF-β1 LAP C4S; antibody dilution 1:10,000; fluorescent secondary detection.

Sequence of biotinylated His-tagged TGF-β1 LAP C4S (Homo sapiens (Human)) (P01137 other isoform, or with tags, fused parts or gaps limits assumed): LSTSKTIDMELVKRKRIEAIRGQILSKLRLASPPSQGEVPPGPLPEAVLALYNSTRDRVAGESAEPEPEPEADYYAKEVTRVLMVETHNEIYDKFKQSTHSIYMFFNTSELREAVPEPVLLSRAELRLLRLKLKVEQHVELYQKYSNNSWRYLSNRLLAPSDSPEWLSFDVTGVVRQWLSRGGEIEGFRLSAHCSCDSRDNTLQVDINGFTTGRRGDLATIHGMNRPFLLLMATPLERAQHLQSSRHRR

B1: 1D11 antibody (mouse monoclonal anti-TGF-β1, 2 and 3 antibody, R&D Systems, Minneapolis, Minn.) (antibody, from another filing, V domains shown)
VH: QVQLQQSGPELVRPGASVKLSCKASGYIFITYWMNWVKQRPGQGLEWIGQIFPASGSTNYNEMFEGKATLTVDTSSSTAYMQLSSLTSEDSAVYYCARGDGNYALDAMDYWGQGTSVTVSS
VL: DIVLTQSPASLAVSLGQRATISCRASESVDSYGNSFMHWYQQKSGQPPKLLIYLASNLESGVPARFSGSGSRTDFTLTIDPVEADDAATYYCQQNNEDPLTFGAGTKLEIK
Turning to B1, the RFU was determined as 218 RFU in assay [1], 214 RFU in assay [2] and 198 RFU in assay [3].
